The results in this text go back to patent publication US20240116985A1 (published 2024).

Starred links: 1 amine or outer side, 2 acyl side, 3 side chain; linkers in the order of their positions; H or OH if unused. Positions of bridges follow the written chain, without caps; N, C: chain ends. Non-standard residues stand in square brackets, D forms with d. Primed or numbered codes have the meaning given here. PyrS2″ = (S)-3-amino-1-((pent-4-en-1-yloxy)carbonyl)pyrrolidine-3-carboxylic acid (stapling residue), C=CCCCOC(=O)N1CC[C@@](N[*:1])(C(=O)[*:2])C1; B5(18) = 2,2-bis(4-pentenyl)glycine (2-amino-2-(pent-4-en-1-yl)hept-6-enoic acid), stitching residue, C=CCCCC(CCCC=C)(N[*:1])C(=O)[*:2]; B5(4) = 2,2-bis(4-pentenyl)glycine = 2-amino-2-(pent-4-en-1-yl)hept-6-enoic acid (stitching residue), C=CCCCC(CCCC=C)(N[*:1])C(=O)[*:2]; TfeGA = (S)-2-amino-3-((carboxymethyl)(2,2,2-trifluoroethyl)amino)propanoic acid, O=C([C@H](CN(CC(=O)[*:3])CC(F)(F)F)N[*:1])[*:2]; PyrS2 = (S)-3-amino-1-((pent-4-en-1-yloxy)carbonyl)pyrrolidine-3-carboxylic acid, C=CCCCOC(=O)N1CC[C@@](N[*:1])(C(=O)[*:2])C1; PyrS3 = (S)-3-amino-1-((hex-5-en-1-yloxy)carbonyl)pyrrolidine-3-carboxylic acid, C=CCCCCOC(=O)N1CC[C@@](N[*:1])(C(=O)[*:2])C1; B5(7) = 2-amino-2-(pent-4-en-1-yl)hept-6-enoic acid, two olefinic side chains, C=CCCCC(CCCC=C)(N[*:1])C(=O)[*:2]; B5(3) = 2,2-bis(4-pentenyl)glycine (stitching residue), C=CCCCC(CCCC=C)(N[*:1])C(=O)[*:2]; Phe(3-COOH) = N[C@@H](Cc1cccc(C(=O)O)c1)C(=O)O; Phe(2-CF3) = N[C@@H](Cc1ccccc1C(F)(F)F)C(=O)O; Phe(2-Cl) = N[C@@H](Cc1ccccc1Cl)C(=O)O; Bta = N[C@@H](Cc1csc2ccccc12)C(=O)O; αAllylPro = C=CC[C@@]1(C(=O)O)CCCN1; tBuAla = CC(C)(C)C[C@H](N)C(=O)O; 3Thi = N[C@@H](Cc1ccsc1)C(=O)O; Cha = N[C@@H](CC1CCCCC1)C(=O)O; S8 = C=CCCCCCC[C@](C)(N)C(=O)O; hSer = N[C@@H](CCO)C(=O)O; Aib = CC(C)(N)C(=O)O

Test in all cases: cell-based or functional assay
Experiment [1] addresses T1, B-cat-Halo (UniProt P35222 1-781).
T1 sequence (looked up): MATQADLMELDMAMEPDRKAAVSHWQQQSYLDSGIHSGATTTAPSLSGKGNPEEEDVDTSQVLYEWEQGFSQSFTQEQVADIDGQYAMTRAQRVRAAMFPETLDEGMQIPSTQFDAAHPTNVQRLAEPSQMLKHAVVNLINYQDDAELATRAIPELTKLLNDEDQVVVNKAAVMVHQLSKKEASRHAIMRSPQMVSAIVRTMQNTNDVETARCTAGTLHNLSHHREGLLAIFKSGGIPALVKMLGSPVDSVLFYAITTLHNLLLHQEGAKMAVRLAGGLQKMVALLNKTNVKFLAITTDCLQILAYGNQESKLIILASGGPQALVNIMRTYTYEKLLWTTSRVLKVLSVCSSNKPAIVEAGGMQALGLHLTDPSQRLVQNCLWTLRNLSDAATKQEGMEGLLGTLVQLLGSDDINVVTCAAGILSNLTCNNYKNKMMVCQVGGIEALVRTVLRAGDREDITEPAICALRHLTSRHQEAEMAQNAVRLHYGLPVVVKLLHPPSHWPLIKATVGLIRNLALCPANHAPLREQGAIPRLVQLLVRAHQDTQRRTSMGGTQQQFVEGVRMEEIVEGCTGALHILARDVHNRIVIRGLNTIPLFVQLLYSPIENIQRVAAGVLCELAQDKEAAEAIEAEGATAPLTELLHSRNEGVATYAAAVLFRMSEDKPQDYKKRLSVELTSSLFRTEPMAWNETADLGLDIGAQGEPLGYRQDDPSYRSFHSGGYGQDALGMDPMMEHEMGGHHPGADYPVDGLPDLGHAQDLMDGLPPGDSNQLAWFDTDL

Experiment [2] concerns the target T2, beta-catenin in DLD1 TCF/LEF luciferase reporter cells (UniProt P35222 1-781).
T2 sequence (looked up): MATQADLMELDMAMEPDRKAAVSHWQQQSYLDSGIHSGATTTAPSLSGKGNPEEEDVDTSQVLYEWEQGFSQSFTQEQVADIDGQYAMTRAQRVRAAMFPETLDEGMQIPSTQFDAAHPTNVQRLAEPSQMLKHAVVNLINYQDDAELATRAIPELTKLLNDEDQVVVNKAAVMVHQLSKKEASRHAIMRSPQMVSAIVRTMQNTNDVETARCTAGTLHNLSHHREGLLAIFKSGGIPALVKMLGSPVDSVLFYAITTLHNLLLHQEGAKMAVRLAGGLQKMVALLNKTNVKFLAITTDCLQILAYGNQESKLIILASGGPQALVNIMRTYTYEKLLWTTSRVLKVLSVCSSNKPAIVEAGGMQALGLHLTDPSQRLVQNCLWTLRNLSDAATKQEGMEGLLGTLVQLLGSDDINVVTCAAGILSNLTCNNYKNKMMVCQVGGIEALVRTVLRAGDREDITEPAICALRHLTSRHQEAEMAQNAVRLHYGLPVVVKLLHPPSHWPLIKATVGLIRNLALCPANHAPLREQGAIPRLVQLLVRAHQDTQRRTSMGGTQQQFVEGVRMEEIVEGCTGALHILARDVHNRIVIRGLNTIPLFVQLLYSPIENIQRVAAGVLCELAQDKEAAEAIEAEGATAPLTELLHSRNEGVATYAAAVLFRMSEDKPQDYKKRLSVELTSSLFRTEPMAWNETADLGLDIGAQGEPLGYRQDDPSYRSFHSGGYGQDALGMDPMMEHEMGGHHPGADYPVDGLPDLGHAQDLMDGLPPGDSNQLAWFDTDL

The target of experiment [3] is T3, B-cat-Halo (beta-catenin HaloTag NanoBRET construct expressed in HEK293 cells) (UniProt P35222 1-781).
T3 sequence (looked up): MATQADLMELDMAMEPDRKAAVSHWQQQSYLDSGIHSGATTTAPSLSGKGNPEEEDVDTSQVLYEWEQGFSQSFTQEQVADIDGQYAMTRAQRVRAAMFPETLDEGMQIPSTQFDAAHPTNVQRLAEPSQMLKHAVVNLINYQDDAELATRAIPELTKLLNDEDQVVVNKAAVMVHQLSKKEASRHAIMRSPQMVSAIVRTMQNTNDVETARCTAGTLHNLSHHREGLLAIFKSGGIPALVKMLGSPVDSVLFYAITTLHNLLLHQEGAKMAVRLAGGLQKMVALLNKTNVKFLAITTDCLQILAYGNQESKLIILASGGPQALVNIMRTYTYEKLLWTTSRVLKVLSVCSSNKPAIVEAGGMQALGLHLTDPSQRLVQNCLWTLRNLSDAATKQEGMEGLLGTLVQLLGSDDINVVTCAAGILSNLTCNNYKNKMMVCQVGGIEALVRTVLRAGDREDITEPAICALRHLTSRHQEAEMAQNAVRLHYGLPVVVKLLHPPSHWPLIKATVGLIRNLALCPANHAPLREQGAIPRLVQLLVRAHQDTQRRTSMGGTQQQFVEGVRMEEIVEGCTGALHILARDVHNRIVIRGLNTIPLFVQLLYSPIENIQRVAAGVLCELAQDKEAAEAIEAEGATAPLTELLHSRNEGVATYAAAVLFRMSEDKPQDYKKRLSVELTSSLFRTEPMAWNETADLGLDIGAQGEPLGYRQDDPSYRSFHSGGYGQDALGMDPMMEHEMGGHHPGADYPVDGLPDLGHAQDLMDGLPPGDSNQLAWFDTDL

Experiment [4] concerns the target T4, B-cat-Halo (NanoBRET construct expressed in HEK293 cells) (UniProt P35222 1-781, HaloTag NanoBRET 618 Ligand bound in the assay).
T4 sequence (looked up): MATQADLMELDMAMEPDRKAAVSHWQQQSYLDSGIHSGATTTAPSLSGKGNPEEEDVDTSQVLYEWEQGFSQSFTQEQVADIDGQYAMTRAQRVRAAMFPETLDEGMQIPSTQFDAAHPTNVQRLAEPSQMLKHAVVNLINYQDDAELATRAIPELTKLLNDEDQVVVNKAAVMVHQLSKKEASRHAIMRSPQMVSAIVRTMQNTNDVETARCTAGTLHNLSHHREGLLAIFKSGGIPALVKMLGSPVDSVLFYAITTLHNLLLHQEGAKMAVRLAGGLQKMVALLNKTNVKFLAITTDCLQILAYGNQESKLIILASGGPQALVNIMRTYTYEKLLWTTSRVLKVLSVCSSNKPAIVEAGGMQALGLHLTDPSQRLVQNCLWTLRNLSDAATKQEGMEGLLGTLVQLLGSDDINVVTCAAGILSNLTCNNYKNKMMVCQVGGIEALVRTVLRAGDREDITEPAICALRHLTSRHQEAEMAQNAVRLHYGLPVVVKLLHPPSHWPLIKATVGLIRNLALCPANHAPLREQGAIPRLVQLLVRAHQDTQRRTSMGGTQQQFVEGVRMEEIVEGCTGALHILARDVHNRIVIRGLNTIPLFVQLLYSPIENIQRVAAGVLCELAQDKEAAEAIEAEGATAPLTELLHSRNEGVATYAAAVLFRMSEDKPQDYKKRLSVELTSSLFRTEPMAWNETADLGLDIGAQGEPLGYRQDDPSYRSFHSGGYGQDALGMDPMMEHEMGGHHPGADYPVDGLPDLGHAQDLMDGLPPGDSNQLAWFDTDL

Take Ac-[αAllylPro]D[tBuAla][B5(4)]DTAAFT[PyrS2″][3Thi][Bta]S-NH2 (staple 1-4, 4-11) [I-1170]: the “NanoBRET Abs IC50” value in experiment [1] was 13.5 µM.

For the molecule Ac-[αAllylPro]D[tBuAla][B5(4)]DTAAFT[PyrS2″][Phe(2-Cl)][Bta]Q-NH2 (staple 1-4, 4-11) [I-1168], in experiment [1], the “NanoBRET Abs IC50” value was determined as 31.4 µM. On the same count and under the same terms, then Ac-[αAllylPro]D[Cha][B5(4)]DTAAFL[PyrS2″][3Thi][Bta]Q-NH2 (staple 1-4, 4-11) [I-1174], with 32.6 µM. As for Ac-[αAllylPro]D[tBuAla][B5(3)]D[TfeGA]AAF[hSer][S8][Phe(2-Cl)][Bta][hSer]-NH2 (staple 1-4, 4-11) [I-1000], in experiment [2], the “DLD1 reporter assay Abs IC50” value was determined as 8 µM. For the molecule Ac-[αAllylPro]D[tBuAla][B5(3)]NT[Aib]AFN[PyrS2″][3Thi][Bta]Y-NH2 (staple 1-4, 4-11) [Ac-PL3-Asp-Npg-B5-Asn-Thr-Aib-Ala-Phe-Asn-PyrS2-3Thi-BztA-Tyr-NH2], the “NanoBRET Abs IC50” value in experiment [3] was over 20 µM. On to Ac-[αAllylPro]D[tBuAla][B5(18)]D[TfeGA]ASFN[PyrS2″][Phe(2-Cl)][Bta]Q-NH2 (staple 1-4, 4-11) [I-1004], for which the “DLD1 reporter assay Abs IC50” value in experiment [2] was over 20 µM.

As to Ac-[αAllylPro]D[tBuAla][B5(4)]DTAAFL[PyrS2″][3Thi][Bta]Q-NH2 (staple 1-4, 4-11) [I-1167], the “NanoBRET Abs IC50” value in experiment [1] is 11.7 µM. Take Ac-[αAllylPro]D[tBuAla][B5(7)]D[TfeGA]AAFN[PyrS2][3Thi][Bta]H-NH2 (staple 1-4, 4-11) [I-769]: the “NanoBRET Abs IC50” value in experiment [4] was 13 µM. Ac-[αAllylPro]D[tBuAla][B5(4)]DTAAFL[PyrS2″][Phe(2-Cl)][Bta]S-NH2 (staple 1-4, 4-11) [I-1172]: the “NanoBRET Abs IC50” value in experiment [1] came to 19.4 µM.

For Ac-[αAllylPro]D[tBuAla][B5(7)]DDAAFN[PyrS3][3Thi][Bta]Q-NH2 (staple 1-4, 4-11) [I-767], in experiment [4], the “NanoBRET Abs IC50” value came to 37.2 µM. Consider Ac-[αAllylPro]D[tBuAla][B5(18)]D[TfeGA]ALFN[PyrS2″][Phe(2-Cl)][Bta]Q-NH2 (staple 1-4, 4-11) [I-1002], for which the “DLD1 reporter assay Abs IC50” value in experiment [2] is over 20 µM.

On to Ac-[αAllylPro]D[tBuAla][B5(7)]DDAAFN[PyrS3][3Thi][Bta]Q-NH2 (staple 1-4, 4-11) [I-768], for which the “NanoBRET Abs IC50” value in experiment [4] turned out to be 31.4 µM. Consider Ac-[αAllylPro]D[tBuAla][B5(4)]DTAAFL[PyrS2″][3Thi][Bta]S-NH2 (staple 1-4, 4-11) [I-1171], for which the “NanoBRET Abs IC50” value in experiment [1] was determined as 28.8 µM. For Ac-[αAllylPro]D[tBuAla][B5(18)]DDAAFS[PyrS2″][Phe(2-Cl)][Bta]Q-NH2 (staple 1-4, 4-11) [I-1017], the “DLD1 reporter assay Abs IC50” value in experiment [2] is over 20 µM.

On to Ac-[αAllylPro]D[tBuAla][B5(18)]D[TfeGA]FAFN[PyrS2″][Phe(2-Cl)][Bta]Q-NH2 (staple 1-4, 4-11) [I-1008], for which the “DLD1 reporter assay Abs IC50” value in experiment [2] amounted to 13 µM.

For Ac-[αAllylPro]D[tBuAla][B5(18)]DDAAFT[PyrS2″][Phe(2-Cl)][Bta]S-NH2 (staple 1-4, 4-11) [I-1015], the “DLD1 reporter assay Abs IC50” value in experiment [2] amounted to 9 µM. For the molecule Ac-[αAllylPro]D[tBuAla][B5(3)]D[Phe(3-COOH)]QAFL[PyrS2″][Phe(2-CF3)][2F3MeW]A-NH2 (staple 1-4, 4-11) [Ac-PL3-Asp-Npg-B5-Asp-3COOHF-Gln-Ala-Phe-Leu-PyrS2-2F3MeF-2F3MeW-Ala-NH2], the “NanoBRET Abs IC50” value in experiment [3] is over 20 µM.
